From the Human Domainome abundance scans (Beltran et al. 2025)
± gives the uncertainty stated by the source.

Test: abundance fitness (aPCA) (normalised: wild type 0, dead -1); higher = more abundant; growth selection in yeast, the domain comes from the species named
Conditions: Homo sapiens
For “Transcriptional activator Myb E151S, P10242”, the abundance fitness was -0.73 ± 0.088.
For “Transcriptional activator Myb E151T, P10242”, the abundance fitness was -0.731 ± 0.12.
Substance “Transcriptional activator Myb E151V, P10242” has an abundance fitness of -0.466 ± 0.074.
Substance “Transcriptional activator Myb E151W, P10242” has an abundance fitness of -0.835 ± 0.078.
With “Transcriptional activator Myb E151Y, P10242” the abundance fitness was -1.12 ± 0.36.
Work on “Transcriptional activator Myb E168A, P10242” yielded an abundance fitness of -0.287 ± 0.093.
Work on “Transcriptional activator Myb E168C, P10242” yielded an abundance fitness of -0.464 ± 0.11.
“Transcriptional activator Myb E168D, P10242” showed an abundance fitness of -0.133 ± 0.09.
With “Transcriptional activator Myb E168F, P10242” the abundance fitness was -0.574 ± 0.12.
In the case of “Transcriptional activator Myb E168G, P10242”, the abundance fitness is reported as -0.668 ± 0.07.
With “Transcriptional activator Myb E168H, P10242” the abundance fitness was -0.548 ± 0.36.
Substance “Transcriptional activator Myb E168K, P10242” has an abundance fitness of -0.279 ± 0.11.
In the case of “Transcriptional activator Myb E168L, P10242”, the abundance fitness is reported as -0.419 ± 0.069.
“Transcriptional activator Myb E168M, P10242” showed an abundance fitness of -0.533 ± 0.16.
“Transcriptional activator Myb E168N, P10242” gave an abundance fitness of -0.492 ± 0.17.
Substance “Transcriptional activator Myb E168P, P10242” has an abundance fitness of -0.833 ± 0.13.
Substance “Transcriptional activator Myb E168Q, P10242” has an abundance fitness of -0.182 ± 0.13.
For “Transcriptional activator Myb E168R, P10242”, the abundance fitness was -0.541 ± 0.067.
For “Transcriptional activator Myb E168S, P10242”, the abundance fitness was -0.325 ± 0.084.
In the case of “Transcriptional activator Myb E168T, P10242”, the abundance fitness is reported as -0.573 ± 0.32.
With “Transcriptional activator Myb E168V, P10242” the abundance fitness was -0.61 ± 0.077.
Work on “Transcriptional activator Myb E168W, P10242” yielded an abundance fitness of -0.79 ± 0.1.
“Transcriptional activator Myb E168Y, P10242” gave an abundance fitness of -0.657 ± 0.14.
Work on “Transcriptional activator Myb E194A, P10242” yielded an abundance fitness of -0.055 ± 0.086.
“Transcriptional activator Myb E194C, P10242” gave an abundance fitness of -0.226 ± 0.21.
For “Transcriptional activator Myb E194D, P10242”, the abundance fitness was -0.001 ± 0.16.
In the case of “Transcriptional activator Myb E194F, P10242”, the abundance fitness is reported as -0.168 ± 0.27.
Substance “Transcriptional activator Myb E194G, P10242” has an abundance fitness of -0.135 ± 0.068.
Substance “Transcriptional activator Myb E194H, P10242” has an abundance fitness of -0.403 ± 0.49.
Substance “Transcriptional activator Myb E194K, P10242” has an abundance fitness of -0.067 ± 0.13.
For “Transcriptional activator Myb E194L, P10242”, the abundance fitness was -0.192 ± 0.088.
With “Transcriptional activator Myb E194M, P10242” the abundance fitness was -0.229 ± 0.26.
“Transcriptional activator Myb E194N, P10242” gave an abundance fitness of -0.316 ± 0.36.
In the case of “Transcriptional activator Myb E194P, P10242”, the abundance fitness is reported as 0.022 ± 0.21.
In the case of “Transcriptional activator Myb E194Q, P10242”, the abundance fitness is reported as -0.125 ± 0.13.
In the case of “Transcriptional activator Myb E194R, P10242”, the abundance fitness is reported as -0.102 ± 0.089.
For “Transcriptional activator Myb E194S, P10242”, the abundance fitness was -0.161 ± 0.1.
In the case of “Transcriptional activator Myb E194T, P10242”, the abundance fitness is reported as -0.001 ± 0.12.
“Transcriptional activator Myb E194V, P10242” gave an abundance fitness of -0.037 ± 0.095.
Work on “Transcriptional activator Myb E194W, P10242” yielded an abundance fitness of -0.152 ± 0.13.
“Transcriptional activator Myb E194Y, P10242” gave an abundance fitness of -0.174 ± 0.24.
Substance “Transcriptional activator Myb E196A, P10242” has an abundance fitness of -0.069 ± 0.079.
For “Transcriptional activator Myb E196C, P10242”, the abundance fitness was -0.13 ± 0.089.
Work on “Transcriptional activator Myb E196D, P10242” yielded an abundance fitness of -0.056 ± 0.11.
Substance “Transcriptional activator Myb E196F, P10242” has an abundance fitness of -0.247 ± 0.15.
In the case of “Transcriptional activator Myb E196G, P10242”, the abundance fitness is reported as 0.007 ± 0.057.
In the case of “Transcriptional activator Myb E196H, P10242”, the abundance fitness is reported as -0.196 ± 0.1.
With “Transcriptional activator Myb E196I, P10242” the abundance fitness was -0.34 ± 0.12.
“Transcriptional activator Myb E196K, P10242” showed an abundance fitness of -0.064 ± 0.1.
“Transcriptional activator Myb E196L, P10242” showed an abundance fitness of -0.03 ± 0.072.
“Transcriptional activator Myb E196M, P10242” showed an abundance fitness of -0.084 ± 0.093.
“Transcriptional activator Myb E196N, P10242” showed an abundance fitness of -0.022 ± 0.089.
Work on “Transcriptional activator Myb E196P, P10242” yielded an abundance fitness of -0.114 ± 0.1.
“Transcriptional activator Myb E196Q, P10242” gave an abundance fitness of -0.032 ± 0.12.
Work on “Transcriptional activator Myb E196R, P10242” yielded an abundance fitness of -0.092 ± 0.046.
“Transcriptional activator Myb E196S, P10242” gave an abundance fitness of -0.052 ± 0.064.
“Transcriptional activator Myb E196T, P10242” showed an abundance fitness of -0.044 ± 0.1.
With “Transcriptional activator Myb E196V, P10242” the abundance fitness was -0.121 ± 0.092.
With “Transcriptional activator Myb E196W, P10242” the abundance fitness was -0.151 ± 0.067.
Substance “Transcriptional activator Myb E196Y, P10242” has an abundance fitness of -0.306 ± 0.17.
Work on “Transcriptional activator Myb E201A, P10242” yielded an abundance fitness of -0.094 ± 0.076.
In the case of “Transcriptional activator Myb E201C, P10242”, the abundance fitness is reported as -0.314 ± 0.11.
In the case of “Transcriptional activator Myb E201F, P10242”, the abundance fitness is reported as -0.521 ± 0.35.
With “Transcriptional activator Myb E201G, P10242” the abundance fitness was -0.076 ± 0.054.
“Transcriptional activator Myb E201H, P10242” gave an abundance fitness of -0.034 ± 0.15.
Substance “Transcriptional activator Myb E201I, P10242” has an abundance fitness of -0.156 ± 0.2.
For “Transcriptional activator Myb E201K, P10242”, the abundance fitness was -0.272 ± 0.16.
Work on “Transcriptional activator Myb E201L, P10242” yielded an abundance fitness of -0.158 ± 0.097.
In the case of “Transcriptional activator Myb E201M, P10242”, the abundance fitness is reported as -0.078 ± 0.24.
“Transcriptional activator Myb E201N, P10242” gave an abundance fitness of 0.095 ± 0.14.
“Transcriptional activator Myb E201P, P10242” showed an abundance fitness of -0.221 ± 0.13.
“Transcriptional activator Myb E201Q, P10242” gave an abundance fitness of -0.061 ± 0.14.
“Transcriptional activator Myb E201R, P10242” showed an abundance fitness of -0.12 ± 0.066.
With “Transcriptional activator Myb E201S, P10242” the abundance fitness was -0.105 ± 0.1.
“Transcriptional activator Myb E201V, P10242” gave an abundance fitness of -0.183 ± 0.078.
In the case of “Transcriptional activator Myb E201W, P10242”, the abundance fitness is reported as -0.204 ± 0.08.
For “Transcriptional activator Myb E201Y, P10242”, the abundance fitness was -0.377 ± 0.14.
With “Transcriptional activator Myb G163A, P10242” the abundance fitness was -0.329 ± 0.069.
